Measured values published in PMC7155059, “Kinetic characterisation of Erv1, a key component for protein import and folding in yeast mitochondria” (The Febs Journal, 2019).

Substrate: OC(CS)C(O)CS
Experiment: oxygen consumption, Clark-type electrode
Format: biochemical, Saccharomyces cerevisiae
Settings: electron donor, co-substrate O2 (air, ~250 μM), 1 μM Erv1, SOD1 10 units/mL, 50 mM Tris/HCl, 150 mM NaCl, 1 mM EDTA, pH 7.4, 25 °C

B1: Erv1 (yeast Erv1) (Saccharomyces cerevisiae S288C) (protein)
chain: MKAIDKMTDNPPQEGLSGRKIIYDEDGKPCRSCNTLLDFQYVTGKISNGLKNLSSNGKLAGTGALTGEASELMPGSRTYRKVDPPDVEQLGRSSWTLLHSVAASYPAQPTDQQKGEMKQFLNIFSHIYPCNWCAKDFEKYIRENAPQVESREELGRWMCEAHNKVNKKLRKPKFDCNFWEKRWKDGWDE
notes: WT, ERV1 gene in pET-24a(+), E. coli Rosetta-gami 2, Ni-NTA then size exclusion
Protein B1 has a Km of 1500 ± 100 µM and a kcat of 1.28 ± 0.03 s⁻¹.
